B1: NEK8 (parent)
chain: VVGTPCYISPELCEGKPYNQKSDI
B2: C1orf137 (parent)
chain: LPQETNLTLKVCKPQAPQKLDPTL

Variants of: B1
Assay: protein stability index of a GFP-peptide fusion (GPS, HEK-293T) (PSI 1-6); higher = more stable
Settings: c terminus: a fixed tail appended
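Also: lentivirally expressed fusions sorted by FACS into six bins by GFP to DsRed ratio, PSI derived from sequencing read proportions per bin multiplied by bin number.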

Protein stability index: each site, then its substitutions
G3: S 3.01, I 1.8, D 3.26, P 3.38, H 2.74, N 3.52, M 1.84, V 2.07, A 2.31, F 1.48, K 2.9, Q 2.5, L 1.63, W 2.05, Y 1.65, T 3.01, R 2.74, C 2.23, E 2.7
V1: N 4.48, I 2.32, L 3.1, T 3.76, P 4.25, K 4.06, W 2.62, S 4.03, Q 4.14, H 2.77, E 4.48, C 3.31, M 3.42, Y 2.88, G 4.28, A 3.78, R 3.74, F 1.22, D 4.53
V2: C 2.89, L 3.58, Q 3.77, N 3.63, W 2.8, D 3.9, F 3.12, I 3.56, Y 3.23, K 3.93, P 3.44, R 3.4, G 3.66, M 3.23, A 3.49, S 3.75, E 4.59, H 3.68, T 3.73
T4: A 2.95, D 3.72, E 4.08, C 2.85, F 2.21

Variants of: B2
Assay: as above
Settings: c terminus: a fixed tail appended

Protein stability index, by site and new letter:
L20: P 4.48, K 4.9, W 3.51, E 5.09, C 4.18, N 4.29, G 4.91, T 4.5, D 4.98, A 4.75, R 4.42, M 4.13, F 3.31, H 4.43, Q 4.47, Y 4.46, V 4.03, I 3.42, S 4.34
D21: E 3.98, G 3.3, R 3.19, K 3.77, H 2.86, T 3.7, S 3.85, V 2.87, L 2.44, F 2.66, I 2.74, P 3.35, Q 3.19, C 3.05, W 2.36, M 2.86, N 3.17, A 2.65, Y 2.73
T23: M 3.32, R 3.48, A 3.47, E 4.91, S 3.85, N 4.2, I 3.37, Q 4.21, C 3.89, V 3.4, K 4.16, L 3.06, W 2.48, Y 2.94, G 3.8, F 2.98, D 4.8, H 3.44
L24: Q 4.37, S 4.53, M 3.94, H 4.75, V 4.52, R 4.33, K 4.21, A 4.34, E 4.8, D 5.42, N 4.56, C 4.35, I 4.1, W 3.3, T 4.39, G 4.52, F 4.32, Y 3.37
K19: Q 3.85, M 3.53, S 3.72, Y 3.36, I 2.54, L 3.01, R 3.55, N 3.56, T 4.06, V 4.06, W 2.36, P 3.96
P22: C 2.95, L 2.93, D 4.38, A 3.16, M 2.98, I 2.08, W 2.83, K 4, N 3.38, S 2.87, H 3.13, G 3.39, Q 4.25, V 2.87, E 4.13, F 2.35, R 3.84, Y 3.06, T 3.54

Reference: the supplement of paper PMC10567573
